Reference: PMC7615117, “DNSN-1 recruits GINS for CMG helicase assembly during DNA replication initiation in C. elegans” (Science (New York, N.Y.), 2023)

Tests used:
Assay in all cases: cryo-EM structure; CMG (125 nM) with fork DNA, AMP-PNP, TIM-1/TIPN-1 and DNSN-1 isoform c (each 1.3-fold molar excess), GraFix gradient with glutaraldehyde and BS3
Conditions in all cases: both partners purified
MCM-4 = target: T1, MCM-4 (C. elegans, UniProt Q95XQ8 1-823)
T1 construct: MCM-4, C. elegans; Subunit of m11, written alone for its interfaces in the structure; source: S. cerevisiae, purified as part of recombinant CMG
T1 sequence: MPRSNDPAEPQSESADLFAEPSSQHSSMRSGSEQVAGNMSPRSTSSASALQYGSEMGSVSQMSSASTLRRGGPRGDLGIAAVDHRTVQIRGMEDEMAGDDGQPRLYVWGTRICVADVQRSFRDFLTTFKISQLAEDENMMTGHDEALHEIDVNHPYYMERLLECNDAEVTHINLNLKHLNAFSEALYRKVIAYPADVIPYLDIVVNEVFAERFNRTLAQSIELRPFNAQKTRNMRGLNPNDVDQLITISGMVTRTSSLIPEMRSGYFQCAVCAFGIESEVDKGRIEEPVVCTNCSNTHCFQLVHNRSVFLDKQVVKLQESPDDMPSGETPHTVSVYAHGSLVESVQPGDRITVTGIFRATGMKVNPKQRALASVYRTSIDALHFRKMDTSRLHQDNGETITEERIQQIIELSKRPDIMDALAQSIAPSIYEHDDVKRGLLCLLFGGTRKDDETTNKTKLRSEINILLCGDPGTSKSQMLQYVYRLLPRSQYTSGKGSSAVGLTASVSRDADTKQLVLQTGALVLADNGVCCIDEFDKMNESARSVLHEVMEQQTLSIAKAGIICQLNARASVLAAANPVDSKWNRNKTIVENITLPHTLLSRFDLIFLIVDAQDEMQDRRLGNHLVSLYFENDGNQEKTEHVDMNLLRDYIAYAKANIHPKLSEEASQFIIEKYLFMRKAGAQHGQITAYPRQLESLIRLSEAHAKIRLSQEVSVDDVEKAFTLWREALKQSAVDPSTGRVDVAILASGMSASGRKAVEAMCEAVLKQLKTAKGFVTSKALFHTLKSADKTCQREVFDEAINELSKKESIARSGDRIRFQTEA

TIM-1 = target: T2, TIM-1 (C. elegans, UniProt G5EDN3 1-1353)
T2 construct: TIM-1, C. elegans; Chain of m13, written alone for its contacts in the structure; source: S. cerevisiae, purified as part of the TIM-1_TIPN-1 complex
T2 sequence: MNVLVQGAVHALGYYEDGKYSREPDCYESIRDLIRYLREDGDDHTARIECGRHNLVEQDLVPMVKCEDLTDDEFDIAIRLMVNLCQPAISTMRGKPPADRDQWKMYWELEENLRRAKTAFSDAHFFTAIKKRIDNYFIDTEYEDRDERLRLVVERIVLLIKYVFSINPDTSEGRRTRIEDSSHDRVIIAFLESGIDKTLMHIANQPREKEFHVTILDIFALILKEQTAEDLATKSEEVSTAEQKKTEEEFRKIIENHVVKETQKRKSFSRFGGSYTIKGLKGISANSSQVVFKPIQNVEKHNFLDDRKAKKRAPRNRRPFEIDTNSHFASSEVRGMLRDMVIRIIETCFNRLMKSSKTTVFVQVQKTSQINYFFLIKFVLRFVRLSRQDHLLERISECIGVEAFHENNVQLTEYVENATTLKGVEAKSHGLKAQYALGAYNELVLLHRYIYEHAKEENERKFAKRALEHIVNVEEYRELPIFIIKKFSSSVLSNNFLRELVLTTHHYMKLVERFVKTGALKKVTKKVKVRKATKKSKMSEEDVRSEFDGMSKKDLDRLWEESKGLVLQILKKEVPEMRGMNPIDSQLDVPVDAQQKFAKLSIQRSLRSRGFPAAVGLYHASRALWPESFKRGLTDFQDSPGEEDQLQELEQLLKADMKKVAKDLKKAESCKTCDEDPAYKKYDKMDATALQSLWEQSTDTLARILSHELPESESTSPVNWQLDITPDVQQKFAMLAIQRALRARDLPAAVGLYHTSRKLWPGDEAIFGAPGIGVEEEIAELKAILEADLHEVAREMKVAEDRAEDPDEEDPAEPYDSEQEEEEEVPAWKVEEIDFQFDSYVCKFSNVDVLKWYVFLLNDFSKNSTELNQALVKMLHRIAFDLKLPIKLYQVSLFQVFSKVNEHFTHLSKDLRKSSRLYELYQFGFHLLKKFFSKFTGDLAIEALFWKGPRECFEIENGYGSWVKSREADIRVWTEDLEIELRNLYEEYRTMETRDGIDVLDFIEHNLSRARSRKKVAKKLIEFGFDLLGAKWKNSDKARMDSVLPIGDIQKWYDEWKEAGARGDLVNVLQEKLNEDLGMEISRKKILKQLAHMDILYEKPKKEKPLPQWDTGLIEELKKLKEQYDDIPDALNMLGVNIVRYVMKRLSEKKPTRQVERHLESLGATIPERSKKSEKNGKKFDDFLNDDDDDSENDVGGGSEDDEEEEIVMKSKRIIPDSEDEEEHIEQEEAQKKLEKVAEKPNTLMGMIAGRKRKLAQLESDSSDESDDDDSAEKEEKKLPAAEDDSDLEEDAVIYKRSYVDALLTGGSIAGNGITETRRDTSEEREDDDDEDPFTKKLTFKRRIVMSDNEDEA

MCM-3 = target: T3, MCM-3 (C. elegans, UniProt Q9XVR7 1-812)
T3 construct: MCM-3, C. elegans; Subunit of m11, written alone for its contacts in the structure; also called MCM-3 subunit of MCM-2-7; source: S. cerevisiae, purified as part of recombinant CMG
T3 sequence: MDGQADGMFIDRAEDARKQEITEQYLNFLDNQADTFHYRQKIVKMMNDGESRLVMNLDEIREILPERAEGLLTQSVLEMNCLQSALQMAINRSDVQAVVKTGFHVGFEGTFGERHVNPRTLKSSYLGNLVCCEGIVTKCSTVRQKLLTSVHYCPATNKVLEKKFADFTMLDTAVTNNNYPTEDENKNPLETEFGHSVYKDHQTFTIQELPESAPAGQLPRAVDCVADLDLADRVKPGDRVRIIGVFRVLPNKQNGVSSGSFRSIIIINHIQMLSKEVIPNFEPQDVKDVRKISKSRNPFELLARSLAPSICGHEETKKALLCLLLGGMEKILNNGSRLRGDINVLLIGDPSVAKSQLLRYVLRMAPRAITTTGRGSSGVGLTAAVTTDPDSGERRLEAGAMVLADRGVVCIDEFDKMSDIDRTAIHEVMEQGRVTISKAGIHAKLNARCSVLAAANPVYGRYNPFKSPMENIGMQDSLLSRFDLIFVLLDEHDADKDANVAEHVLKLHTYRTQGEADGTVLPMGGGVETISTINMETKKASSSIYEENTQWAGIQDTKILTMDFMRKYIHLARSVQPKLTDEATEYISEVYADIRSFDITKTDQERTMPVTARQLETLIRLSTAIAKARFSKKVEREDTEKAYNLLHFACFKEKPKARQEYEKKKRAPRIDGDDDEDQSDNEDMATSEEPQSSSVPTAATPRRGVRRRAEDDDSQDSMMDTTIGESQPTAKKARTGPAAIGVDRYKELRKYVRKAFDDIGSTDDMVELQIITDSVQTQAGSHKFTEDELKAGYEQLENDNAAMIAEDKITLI

Row | Binder | binding result (TIM-1) | also measured
1 | MCM-6 (natural protein, C. elegans, MCM-6, C. elegans; Subunit of m11, written alone for its interface in the structure; source: S. cerevisiae, purified as part of recombinant CMG) MDNIIGGQAQQVEDTDGTRVQNEFSKFLKSFKDQKNEFIYKSAMKELVQPEKNTIFINMQHLYKFSNNLATTIELQYYRVYPFMCEALHLATLDACDESERQQMFKKQLYVSLFNLDAKTKVRELSADKVGGLVRIAGQIVRTHPVHPELSRACFVCEDCGVTTRDVQQQFRYTQPTKCANPQCMNRTRFSLDVNSSTFVDFQKIRIQETQAELPRGSIPRTVDVIVRGEMVETVQPGDKCDIVGTLIVIPDIAQLSTPGLRAETSNQNRGRATDKSEGITGLKALGVRDLTYKMAFLACHIQQTESLVGGDASGAVEETDYLDLWSKMSTEDRATLKKMSDDKKIEKNIVDSLFPNIYGNHEVKLGVLLMLLGGVAKKSRDEGTSLRGDINVCLVGDPSTAKSQVLKAVEEFSPRAIYTSGKASSAAGLTAAVVKDEESFEFVIEAGALMLADNGVCCIDEFDKMDLKDQVAIHEAMEQQTISITKAGVKATLNARASILAAANPVNGRYDRSRPLKYNVQMSAPIMSRFDLFFVLVDECNEVTDYAIARRILDNHRAISEHTERDSVYKIDDIKKYIAFARCFKPKISDKAAETLVREYKKLRMSDSNNAATSSWRITVRQLESLVRLSEALARLHCGKEVLVEHVEKAAELLNKSIVRVEQPDIALDDDDFDNNIMVVEADKENQRGDDSMDHDGEKENAPKIDIAKLKISFKEYKQLSDVLVLHMRSDEDNQGEDEYDGVKQSALVEWYLSTIEADLETEEDFNVQKTICERVIHRLIHQDHVLLEVEQGEDPTLCVHPNYVIADE | – | binding result (MCM-4): binds
2 | TIPN-1 (natural protein, C. elegans, TIPN-1, C. elegans; Chain of m13, written alone; source: S. cerevisiae, purified as part of the TIM-1_TIPN-1 complex) MDEMEDFFENDELDREPSPMGDEAIEDNSGEGGTRRVVEPKLLRTKRLANPRLALNERILTGPKGISALRETLKDFKPNPKDDPYANLEKLMKKYAYWGHLMFPKMKTEDVLNRVETLGTRRQVKVFMIKHRLGETGEDSEHEEQENQKNGIIDDGASDNDDDLFKDLPEKEVTTEKAKNSEKSDQKTAEIDENVEEEYRMMEEERLREEQEAKEAADEDALMEDFGDMNNDW | binds | –
3 | MCM-5 (natural protein, C. elegans, MCM-5, C. elegans; Subunit of m11, written alone for its interface in the structure; source: S. cerevisiae, purified as part of recombinant CMG) MSNLDNPGIYYQERFFANDGVPDTGRELIAEYRQLITQFRNFIRDFSTGGFGMIYRDQLKRNYFSHEYRLEINLNHLKNFDEDIEMKLRKFPGKVLPALEEAAKIVADEITTPRPKGEEKLHDIQVTLTLDEYPTSLRQVKSAQVSQVVKISGIIVAAAQVRSKATKVTLQCRQCKHTIPDVSIKPGLEGFALPRTCAAPQQGQMQRCPIDPYIMLPDKCECVDYQTLKLQENPEDVPHGEMPRHLQLFTERYLTDKVVPGNRVTIVGVYSIKKLIQKKGGDKSLQGIRTPYLRVLGIHMETSGPGRTNFTTFTPEEERMFKTLAQRKDAYELIAKSIAPSIYGSADIKKSIACLLFGGARKKLPDGITRRGDINVLLLGDPGTAKSQLLKFVEQVSPIGVYTSGKGSSAAGLTASVIRDPQSRSFIMEGGAMVLADGGVVCIDEFDKMREDDRVAIHEAMEQQTISIAKAGITTTLNSRCSVLAAANSVYGRWDESRGDDNIDFMPTILSRFDMIYIVKDTHDVLKDATLAKHVIEVHVNASAAKERDIAGVPKTATTDSDGVMTMFDTDGFLTIEFLKKFVTYARLNCGPRLTPQASEKLVNHYVKMRNPVVNADAFKSGKKAHNSAIPITVRQLEAIVRIAESIAKMELQQFATDKHVEEALRLFRVSTIEAAATGNLAGVEGFTSTADQEALNRIEVQMKKRFAIGTHVSEHLIVQDFVARQHYRESLVKKVIDNLVRRGDLQQKMQRKMLYRVR | – | binding result (MCM-3): binds
4 | MCM-2 (natural protein, C. elegans, MCM-2, C. elegans; Subunit of m11, written alone for its contacts in the structure; source: S. cerevisiae, purified as part of recombinant CMG) MADRANNDDDVDRQPLPIADDADDDVDGIDEMFNNEDEDPEDEEGENLFGDDMERDYREQPELDQYSESGMDDASDVGSLSVSARRAAEREMAQRDQLLDDDALMYEDGDSEEVDTRRRGRGRRGRGDAADDDSVPMEEEDIPVDILENIRGRTIRDHVSDEAVAKEIERRFKNFLRSFHEPGNKQTKYIQMIKSMAADNRESLEVSFTDLSDDNGEQNISYFLPEAPNEMLAIMDRAATEVVMNMYPFYSRVCNEIKVRISQLPVEEDIRMLRQVHLNMLIRTAGVVTIASGILPQLAVVKYDCVACGYLLGPFVQQNDEEVRPTICPSCQGKGPFELNVENTVYHNYQRITMQESPNKVAAGRLPRSKDVILLGDLCDSCKPGDEIEVTGVYTNNFDGSLNYKQGFPVFNTLIHANHITNKDKMASDQLTDEDIKAIRELSQDPNISQRVFSSIAPSIYGHDDVKRAIALALFRGEAKNPGAKHRLRGDINVLLCGDPGTAKSQFLRYAAHIAPRSVLTTGQGASAVGLTAYVQRHPVTREWTLEAGAMVLADKGVCLIDEFDKMSDQDRTSIHEAMEQQSISISKAGIVTSLHARCTVIAASNPIGGRYNPTRTFAENVDLTEPILSRFDVLCVIRDSVDSVEDERLAKFVVGNHRTHHPDAKKIVKEGDELEEDQMDERTGVRLIPQDLLRKYIIYAREKCHPTLPEQHSEKFSNIFAQMRKESMATGSVAITVRHVESMIRLSEAHAKLHLRSYVNDEDCAAAIRVMLESFVNTQKASIMRMMKKTFSRHLTENRSANELLLFILKQLIRQQMHYATARAAAGTILQSVTIPESEFIEKAQQLRIENVKPFYTSEIFASNNFLYDPSKKTIVQEIF | binds | –
